What all share (assay): purified protein
Holding throughout (details): 0.1 mM NADPH, 100 mM Tris pH 7.5, 50 °C, 2% p-dioxane

Substrate in data set [1]: CC(=O)c1ccc(O)cc1
Type of data set: biochemical, Tepidiforma thermophila.

Substrate in data set [2]: CC(=O)c1cccc(O)c1
It is filed as biochemical, Tepidiforma thermophila.

Substrate in data set [3]: CCCCCCC(C)=O
Substrate in data set [4]: CC(=O)c1ccccc1
Substrate in data set [5]: CC(=O)CCc1ccccc1
Substrate in data set [6]: CCC(=O)c1ccccc1
Substrate in data set [7]: CCCCCC(C)=O

B1: ssnBVMO (Tepidiforma thermophila) (protein)
chain: MTSNAPQSFDSIIVGAGFAGLYQLIRLRRAGFSARVIEAGDNVGGTWYWNRYPGARCDIESLQYQYAFDPGLAKEWRWTERYATQPEILRYIEFVADRYDLRRDIQFSTRVTAAHYDEAAARWTVHTDRGDLYSCRYLVMATGCLSVPKTPEVPGIETFEGESYHTGAWPHEGVDFTGKRVAVIGTGSSAIQSIPIIARQAAHLTVFQRTPNFSVPAHNYFLDEEQWRAAAERIAELRAEARTTSAGITGLPLNDVSALAVSEEERRREYERRWAMGGFAIGGAFNDIAINPDANETAAEFVRQKIREIVQDPETAEALCPRDYPFGTKRLCVDIAYYETFNRPNVKLVSIRDNPIAAITPKGVRLENGDEYEFDAIVYATGFDAMTGALLRIDIRGRDGLTLREKWEHGPRTYLGIQVAGFPNMFTITGPGSPSVLSNMIVSIEQHVDWVTDCLEYLRERDLATIEASPAAEDAWVNHVNEVANLTLYPRANSWYIGANVPGKPRVFMPYVGGVGAYAQKCAEVAANGYEGFILQPEPAALSR
As to B1, the Michaelis-Menten constant (Km) (in general, the substrate concentration at which the rate is half of its maximum) was determined as 1.28 ± 0.18 mM in the data set “purified protein [1]”; 2.5 ± 2.0 mM in “purified protein [2]”; 0.0201 ± 0.0096 mM in “purified protein [3]”; 2.52 ± 0.61 mM in “purified protein [4]”; 0.022 ± 0.012 mM in “purified protein [5]”; 0.373 ± 0.039 mM in “purified protein [6]”. Moreover, the Michaelis constant (Km) in the data set “purified protein [7]” is 3.7 ± 1.5 µM. Moreover, the kcat (as a rule, the maximal rate divided by the concentration of active sites) amounted to 0.455 ± 0.026 s⁻¹ in “purified protein [1]”; 0.127 ± 0.038 s⁻¹ in “purified protein [2]”; 0.671 ± 0.076 s⁻¹ in “purified protein [3]”; 0.335 ± 0.018 s⁻¹ in the data set “purified protein [4]”; 0.76 ± 0.10 s⁻¹ in the data set “purified protein [5]”; 0.152 ± 0.003 s⁻¹ in “purified protein [6]”. In the data set “purified protein [7]”, the kcat amounted to 0.455 ± 0.038 s⁻¹.

B2: PTDH-L1-ssnBVMO (Tepidiforma thermophila) (protein)
chain: B1 chain
Take B2: the Michaelis constant (Km) came to 0.76 ± 0.12 mM in the data set “purified protein [1]”; 1.59 ± 0.27 mM in the data set “purified protein [2]”; 0.0257 ± 0.0025 mM in the data set “purified protein [3]”; 3.60 ± 0.79 mM in “purified protein [4]”; 0.70 ± 0.14 mM in “purified protein [6]”; 6.3 ± 3.1 µM in “purified protein [7]”. The catalytic constant (kcat) in the data set “purified protein [1]” amounted to 0.301 ± 0.061 s⁻¹; in “purified protein [2]”, 0.120 ± 0.023 s⁻¹; in “purified protein [3]”, 0.536 ± 0.078 s⁻¹; in the data set “purified protein [4]” it was 0.459 ± 0.081 s⁻¹; in “purified protein [6]” it was 0.371 ± 0.057 s⁻¹; in the data set “purified protein [7]” it was 0.61 ± 0.11 s⁻¹.
